Assay results reported in the supplement of paper PMC10201428.
± gives the standard deviation of the averaged measurements.

Key:
[1] = system: VchCAST RNA-guided transposition machinery (E. coli BL21(DE3) host, lacZ target); test: relative integration efficiency (T-LR orientation) vs wild-type transposon end (log2 (normalized fold change)); transposon end mutated: left end; higher = more efficient transposition
How it was run: (§1)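 Relative integration efficiency is a fold change of output over input barcode abundance, normalised to reference barcodes and log-transformed. Input plasmids and genomic integration junctions were PCR-amplified and Illumina-sequenced from E. coli BL21(DE3) co-transformed with a T7-driven effector plasmid and pUC57 donor pools of 1549 left-end or 1849 right-end transposon variants. Plating was done with 0.1 mM IPTG at 37°C for 18 h, with two biological output replicates and four reference barcodes.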

[2] = system: VchCAST RNA-guided transposition machinery (E. coli BL21(DE3) host, lacZ target); test: relative integration efficiency (T-RL orientation) vs wild-type transposon end (log2 (normalized fold change)); transposon end mutated: left end; higher = more efficient transposition
How it was run: as §1

Row | Sequence | relative integration efficiency (log2) [1] | relative integration efficiency (log2) [2]
1 | AATGTTGTTGATGCAACCATAAAGTGATATTTAATAATTATTTATAATCAGCAACTTAACCACAAAATGTGAATCGAGTATTTCAGCAAAACTACTGCAGTAAGAATCAACCATATATTGATATCTCACAAAACAACCATAAGTTGATATTT | -5.03 ± 3.6 | -5.36 ± 1.6
2 | AATGTTGTTGATGCAACCATAAAGTGATATTTAGACGTCCTTAACTCTGGCAGGGAGTTCAAGGGACCAACCATATATTGATATCTCACAAAACAACCATAAGTTGATATTTTTGTGAATCGAGTATTTCAGCAAAACTACTGCAGTAAGAA | -3.47 ± 2.7 | -2.69 ± 1.2
3 | AATGTTGTTGATGCAACCATAAAGTGATATTTACAACCATATATTGATATCTCTCACAACCATAAGTTGATATTTCTCTGATCATAGTCAGACCAACATTGCTACGACCCGTATTCGCACCGACACTGTGAATCGAGTATTTCAGCAAAACT | 2.61 ± 1.1 | -2.28 ± 0.64
4 | AATGTTGTTGATGCAACCATAAAGTGATATTTAATAACAACCATATATTGATATCTCACAAAACAACCATAAGTTGATATTTTTGTGAATCGAGTATTTCAGCAAAACTACTGCAGTAAGAAAGTTACTTCGTGGTATGGGAGGATCAAGGA | -3.02 ± 1.5 | -5.54 ± 1.1
5 | AATGTTGTTGATGCAACCATAAAGTGATATTTAATAATTATTTATAATCAGCAACTTAACCACAAAAGTTGGTATATAACTATAGAGACAAAACAACCATAAGTTGATATTTTTGTGAATCGAGTATTTCAGCAAAACTACTGCAGTAAGAA | -1.8 ± 1.5 | -2.65 ± 1.1
6 | AATGTTGTTGATGCAACCATAAAGTGATATTTCCGCCGGCGGGCGCCGACTACCAGGCCAACACCCCACCAACGCGCGGTCGCGAGACACCCCACCAACGCCTGGTCGCGGGGGTGTCCGATCTGATTTCAGCAAAACTACTGCAGTAAGAA | -5 ± 1.2 | -6.65 ± 1.1
7 | AATGTTGTTGATGCAACCATAAAGTGATATTTACCGACTGTCTGCCATCCGCCGCTGCACCGCAGCCCAACCATATATTGATATCTCACAAAACAACCATAAGTTGATATTTTTGTGAATCGAGTATTTCAGCAAAACTACTGCAGTAAGAA | -2.44 ± 0.78 | -3.24 ± 1
8 | AATGTTGTTGATGCAACCATAAAGTGATATTTACAACCATATATTGATATCTCACACAACCATAAGTTGATATTTTTGTGAATCGAGTATTTCAGCAAAACTACTGCAGTAAGAAAGTTACTTCGTGGTATGGGAGGATCAAGGAGCCAATA | 3.33 ± 0.87 | -2.53 ± 0.78
9 | AATGTTGTTGATACAACCATAAAATGATAATTACACCCATAAATTGATAATTATCACACCCATAAATTGATATTGCTGTGAATCGAGTATTTCAGCAAAACTACTGCAGTAAGAAAGTTACTTCGTGGTATGGGAGGATCAAGGAGCCAATA | 3.47 ± 0.79 | -2.21 ± 0.71
10 | AATGTTGTTGATGCAACCATAAAGTGATATTTAATAACTTCGTATAATGTATGCTATACGAAGTTATCAACCATATATTGATATCTCACAAAACAACCATAAGTTGATATTTTTGTGAATCGAGTATTTCAGCAAAACTACTGCAGTAAGAA | -3.76 ± 2.9 | -2.95 ± 1.1
11 | AATGTTGTTGATGCAACCATAAAGTGATATTTAATAATTATTTATAATCAGCAACTTAACCACAAAACAACCATATATTGATATCTCACAAAACAACCATACTGGTCGCGGGGGTGTCCGATCTGATTTCAGCAAAACTACTGCAGTAAGAA | -0.966 ± 1.7 | -2.24 ± 0.99
12 | AATGTTGTTGATGCAACCATAAAGTGATATTTAATAATTATTGCGCCGACTACCAGGCCAACACCCCACCAACGCGCGGTCGCGAGACACCCCACCAACGCCTGGTCGCGGGGGTGTCCGATCTGATTTCAGCAAAACTACTGCAGTAAGAA | -5.68 ± 3.3 | -6.73 ± 0.58
13 | AATGTTGTTGATGCAACCATAAGTTGATATTTTATAATTATTTATAATCAGCAACTTAACCACAAAACAACCATATATTGATATCTCACAAAAGTTGGTATTCAACTATAAAATGTGAATCGAGTATTTCAGCAAAACTACTGCAGTAAGAA | -1.32 ± 0.89 | -2.64 ± 1.1
14 | AATGTTGTTGATGCAACCATAAAGTGATATTTAATAATTATTTATAATCAGCAACTTAACCACAAAACAACCATATATTGATATCTCACAAAAACCAACGCCTGGTCGCGGGGGTGTCCGATCTGATTTCAGCAAAACTACTGCAGTAAGAA | -0.363 ± 1.2 | -2.38 ± 1.1
15 | AATGTTGTTGATGCAACCATAAAGTGATATTTAATAATTATTTATAATCAGCAACTTAACCACAACCATATATTGATATCTCCAAAAACAAAACAACCATAAGTTGATATTTTTGTGAATCGAGTATTTCAGCAAAACTACTGCAGTAAGAA | -2.36 ± 0.59 | -3.07 ± 1
16 | TTTTGTGTTGAAACAACCATAAAGTGATAACAACGAATCAATTAAAATCATAGGCTTAATCGAAAAACAACCATATATTGATATCTCATAAAACAACCATAAGTTGATATTTTGGTGAAAAGGATATTCCAACCTTCATAGTTTAGTAAGAA | 0.0938 ± 0.43 | 0.184 ± 0.29
17 | AATGTTGTTGATGCAACCATAAAGTGATATTTAATAATTATTCAACCATATATTGATATCTCTATAATCAGCAACTTAACCACAAAAACAAAACAACCATAAGTTGATATTTTTGTGAATCGAGTATTTCAGCAAAACTACTGCAGTAAGAA | -3.42 ± 0.56 | -5.19 ± 1.2
18 | AATGTTGTTGATGCAACCATAAAGTGATATTTAATAATTATTTATAATCAGCAACTTAACAACCATATATTGATATCTCCCACAAAAACAAAACAACCATAAGTTGATATTTTTGTGAATCGAGTATTTCAGCAAAACTACTGCAGTAAGAA | -3.54 ± 1.9 | -1.81 ± 0.81
19 | AATGTTGTTGATGCAACCATAAAGTGATATTTAATAATTATTTATAATCAGCAACTTAACCACAAAACAACCATATATTGATATCTCCACCCCACCAACGCCTGGTCGCGGGGGTGTCCGATCTGATTTCAGCAAAACTACTGCAGTAAGAA | -0.685 ± 1.1 | -2.45 ± 0.85
20 | AATGTTGTTGATGCAACCATAAAGTGATATTTAATAATGGAATTGTGAGCGGATAACAATTACAAAACAACCATATATTGATATCTCACAAAACAACCATAAGTTGATATTTTTGTGAATCGAGTATTTCAGCAAAACTACTGCAGTAAGAA | -3.41 ± 0.6 | -4.89 ± 0.52
21 | AATGTTGTTGAAACAACCATAAAGTGATAACAACGAATCAATTAAAATCATAGGCTTAATCGAAAAACAACCATATCTTGATATCGCATAAAACAACCATAAGTTGATATTTTTGTGAATCGAGTATTTCAGCAAAACTACTGCAGTAAGAA | -0.327 ± 0.31 | -0.424 ± 0.24
22 | AATGTTGTTGATGCAACCATAAAGTGATAATAATTATTTATAATCAGCAACTTAACCACAAAACAACCATATATTGATATCTCACAAAACAACCATAAGTTGATATTTTTGTGAATCGAGTATTTCAGCAAAACTACTGCAGTAAGAAAGTT | -6.51 ± 1.4 | -7.71 ± 1.4
23 | AATGTTGTTGATGCAACCATAAAGTGATATTTAATAATTATTTATAATCAGCAACTTAACCACAAAAACCAACGCGCGGTCGCGAGAACAAAACAACCATAAGTTGATATTTTTGTGAATCGAGTATTTCAGCAAAACTACTGCAGTAAGAA | -2.16 ± 0.37 | -3.6 ± 1.3
24 | TTTTGTGTTGAAACAACCATAAAGTGATAACAACGAATCAATTAAAATCATAGGCTTAATCGAAAAACAACCATATCTTGATATCGCATAAAACAACCATAAGTTGATATTTTGGTGAAAAGGATATTCCAACCTTCATAGTTTAGTAAGAA | -0.599 ± 0.63 | -0.363 ± 0.32
